Source: PMC7735759, “Structural basis of TRPC4 regulation by calmodulin and pharmacological agents” (eLife, 2020)
Blank lines part the entries; values can stand above or below the compound they belong to.

Experiments:
[1] = biological target: T1, TRPC4 (Danio rerio, UniProt U3N7D8); experiment: cryo-EM structure at […] Å; also dose-dependent inhibition of (-)-Englerin A currents in TRPC4-expressing oocytes; format: binding
T1 construct: gene trpc4b; residues 2–915
T1 sequence (U3N7D8 2-915): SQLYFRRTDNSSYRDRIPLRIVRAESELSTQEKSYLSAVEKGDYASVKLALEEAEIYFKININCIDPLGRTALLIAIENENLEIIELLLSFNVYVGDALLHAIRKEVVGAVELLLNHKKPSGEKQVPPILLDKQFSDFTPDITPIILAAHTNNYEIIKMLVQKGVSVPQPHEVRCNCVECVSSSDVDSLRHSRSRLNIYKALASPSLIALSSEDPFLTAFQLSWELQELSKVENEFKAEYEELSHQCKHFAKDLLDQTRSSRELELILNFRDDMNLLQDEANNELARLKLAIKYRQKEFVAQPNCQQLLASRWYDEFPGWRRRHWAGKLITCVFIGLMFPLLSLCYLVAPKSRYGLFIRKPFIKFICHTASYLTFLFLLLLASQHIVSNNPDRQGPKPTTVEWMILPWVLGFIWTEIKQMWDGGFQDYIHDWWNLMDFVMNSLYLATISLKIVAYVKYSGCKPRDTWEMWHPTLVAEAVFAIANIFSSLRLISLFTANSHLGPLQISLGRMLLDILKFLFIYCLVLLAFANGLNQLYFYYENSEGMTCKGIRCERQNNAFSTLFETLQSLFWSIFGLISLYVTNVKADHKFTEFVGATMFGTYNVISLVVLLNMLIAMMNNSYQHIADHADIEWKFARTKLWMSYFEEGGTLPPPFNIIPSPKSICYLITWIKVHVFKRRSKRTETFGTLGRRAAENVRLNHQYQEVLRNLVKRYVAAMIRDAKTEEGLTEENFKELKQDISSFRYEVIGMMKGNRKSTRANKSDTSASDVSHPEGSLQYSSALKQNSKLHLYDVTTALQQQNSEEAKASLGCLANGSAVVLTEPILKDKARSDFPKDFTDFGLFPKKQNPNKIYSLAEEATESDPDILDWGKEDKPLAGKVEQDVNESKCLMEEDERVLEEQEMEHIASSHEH

[2] = biological target: T1, TRPC4; experiment: as above; format: binding; remark: listed apart in the source
[3] = biological target: T1, TRPC4; experiment: as above; format: binding; remark: listed apart in the source
[4] = biological target: Zebrafish TRPC4 (Danio rerio TRPC4, residues 2-915) (Danio rerio (zebrafish)); experiment: cryo-EM structure; TRPC4 alone: apo in LMNG, and in amphipols with 100 µM GFB-8438, GFB-9289 or GFB-8749; C4 symmetry
[5] = biological target: Zebrafish TRPC4 (Danio rerio TRPC4, residues 2-915) (Danio rerio (zebrafish)); experiment: cryo-EM structure; TRPC4-CaM complex in LMNG, 10 mM calcium chloride, 10 µM CaM added; 3D sorting without symmetry for the stoichiometries

Compound: O=C1CN(c2cn[nH]c(=O)c2Cl)CCN1C1CCCCC1 [GFB-9289, 4-chloro-5-(4-cyclohexyl-3-oxopiperazin-1-yl)-2,3-dihydropyridazin-3-one]
cryo-EM structure at 3.2 Å; also dose-dependent inhibition of (-)-Englerin A cur [1]: we found an extra density inside the VSL domain region of GFB-9289-bound TRPC4

Compound: O=C1CN(c2cn[nH]c(=O)c2Cl)CCN1CC1CCC(F)(F)CC1 [GFB-8749]
cryo-EM structure at 3.8 Å; also dose-dependent inhibition of (-)-Englerin A cur [2]: an extra density was observed inside the VSL domain region of GFB-8749-bound TRPC4

Compound: O=C1CN(c2cn[nH]c(=O)c2Cl)CCN1Cc1ccccc1C(F)(F)F [GFB-8438]
cryo-EM structure at 3.6 Å; also dose-dependent inhibition of (-)-Englerin A cur [3]: The shape of the density clearly indicated that it corresponds to the bound inhibitor.

stoichiometry N [4]: 4
stoichiometry N [5]: 4
Compound: Zebrafish TRPC4 (Danio rerio TRPC4, residues 2-915) (natural protein)

percent of TRPC4 channels with four CaM bound (fully saturated) [5]: 20%
percent of TRPC4 channels with one CaM bound [5]: 13%
percent of TRPC4 channels with three CaM bound [5]: 31%
percent of TRPC4 channels with two CaM bound [5]: 35%
stoichiometry N (CaM per TRPC4 tetramer) [5]: < 4
Compound: Mouse calmodulin (CaM) (from UniProt P0DP26 1-149) (natural protein)
